According to the supplement of paper PMC10567573:

B1: ZNF649 (parent)
chain: YQAGKPDALTKLEQGEPLWTLEDE

Variants of: B1
Assay: protein stability index of a GFP-peptide fusion (GPS, HEK-293T) (PSI 1-6); higher = more stable
Conditions: c terminus: a fixed tail appended
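Further: lentivirally expressed fusions sorted by FACS into six bins by GFP to DsRed ratio, PSI derived from sequencing read proportions per bin multiplied by bin number.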

Protein stability index, by site and new letter:
Q14: C 4.66 | M 4.17 | K 4.28 | R 3.8 | T 4.71 | Y 3.53 | V 4.71 | F 3.89 | H 4.14 | P 4.63 | D 4.67 | N 4.07 | W 4.44 | L 4.07 | S 4.13 | A 4.11 | G 4.92 | I 4.44
T20: I 3.96 | F 4.22 | P 4.58 | G 4.24 | C 2.62 | D 5.06 | H 4.57 | E 5.14 | L 3.15 | M 5.05 | K 4.13 | N 4.42 | A 3.73
K11: G 4.21 | F 3.37 | L 4.23 | H 4.78 | Y 3.51 | V 4.69 | P 5.28 | M 4.77 | S 4.19 | R 4.14 | W 2.86 | N 4.51 | I 4.54 | Q 4.76 | T 4.09
G15: I 4.15 | N 4.11 | L 4.25 | Y 3.52 | H 4.31 | F 3.74 | T 4.15 | K 4.4 | M 3.97 | C 3.9 | D 4.6 | E 4.88 | A 3.84 | S 4.21 | P 3.89 | R 2.82 | Q 4.31 | W 3.39 | V 4.62
E16: S 4.38 | V 2.59 | T 3.97 | W 2.49 | I 2.1 | P 3.93 | Y 2.62 | G 4.06 | F 2 | L 3.66 | Q 3.76 | K 4.49 | N 3.73 | A 3.93 | D 4.94 | H 3.32 | M 1.92
L12: G 4.83 | Y 4.68 | M 4.54 | W 3.75 | V 4.32 | S 4.52 | I 4.56 | P 4.38 | R 4.4 | F 4.37 | Q 4.56 | H 4.73 | K 4.17 | A 4.95 | N 4.78 | C 5.11 | T 4.22
E13: Q 2.87 | S 4 | M 3.45 | K 3.34 | P 4.18 | C 3.2 | H 4.25 | N 4.16 | A 4.2 | F 2.6 | D 4.18 | V 4.21 | Y 3.12 | I 3.15 | G 3.31 | T 3.86 | R 3.26 | L 3.14 | W 1.98
W19: E 5.34 | S 5.57 | V 5.72 | L 4.92 | N 5.2 | M 4.87 | P 5.62 | Y 5.24 | K 4.98 | R 4.69 | H 5.72 | F 4.86 | I 5.21 | A 5.52 | D 5.31 | T 5.61 | C 4.86
L18: E 5.49 | D 5.11 | P 5.35 | A 4.5 | F 3.54 | K 5.03 | H 5.06 | Y 3.95 | W 3.59 | I 3.53 | T 5.06 | Q 5.19 | C 4.91 | G 4.83 | M 3.84 | R 4.96 | S 5.32
P17: I 3.22 | F 3.68 | H 4.1 | E 4.21 | Y 3.23 | N 4.41 | C 3.46 | Q 4.47 | G 3.47 | R 3.94 | M 4.1 | W 3.36 | A 4.86 | K 3.97 | L 3.95
